Experimental data published in PMC8827053 (RSC Chemical Biology, 2021).

Key:
Assay type in all cases: cell-based
SH-SY5Y cells [1] = experiment: Live/dead assay; details: Aβ42 10 μM, 24 h, calcein-AM/propidium iodide, ImageJ analysis
SH-SY5Y cells [2] = experiment: Membrane toxicity immunocytochemistry; details: Aβ42 10 μM, 3 h, pH 7.4, OC antibody, confocal
SH-SY5Y cells [3] = experiment: Neuronal rescue from Aβ42-induced toxicity; details: Aβ42 10 μM preincubated 48 h pH 7.4, 24 h treatment, Alamar blue

Aβ42: Amyloid beta 42 peptide, the most toxic form of Aβ (PDB: 1Z0Q)
Dead cells, Aβ42 alone (SH-SY5Y cells [1]): ~36%
Total area covered by red fluorescence-labelled Aβ aggregates, Aβ42 alone (SH-SY5Y cells [2]): 12.3%
Cell viability with Aβ42 alone (SH-SY5Y cells [3]): ~64%
